# Earlier results in publication PMC5100577.
# Molecular target: H2A-H2B dimer (Saccharomyces cerevisiae) (UniProt P04911)
# Test: fluorescence dequenching
# Chain of UniProt P04911 (P04911 2-132, chain 1 of 2): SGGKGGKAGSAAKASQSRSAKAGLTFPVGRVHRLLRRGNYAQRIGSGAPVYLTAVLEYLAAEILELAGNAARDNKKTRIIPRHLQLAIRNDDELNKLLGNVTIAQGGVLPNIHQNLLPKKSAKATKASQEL
# Chain of UniProt P04911 (P02293 2-131, chain 2 of 2, further chain): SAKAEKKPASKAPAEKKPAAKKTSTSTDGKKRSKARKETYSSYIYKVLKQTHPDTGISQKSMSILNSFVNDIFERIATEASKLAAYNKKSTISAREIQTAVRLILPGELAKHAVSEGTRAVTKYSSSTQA
substance,measurement,value
FACT (from UniProt P32558),Kd,21.4 nM
